In one assay the target is Detergent-soluble HLA-DR4 purified from Priess cells (DRB1*0401) (human).
The substance “GTL terpolymer (SD-1697), poly[L-Tyr 0.162, L-Glu 0.259, L-Lys 0.579] (peptide)” came in with an IC50 of 43 µM and a Kd of 0.008 µM.

On to Copolymer 1 (peptide), for which the IC50 was 10.8 µM and the Kd stood at 0.015 µM.

In turn, “TGA terpolymer (SD-1690), poly[L-Tyr 0.136, L-Glu 0.21, L-Ala 0.648] (peptide)” yielded an IC50 of 1 µM and an equilibrium dissociation constant (Kd) of 0.008 µM.

The substance “GAL terpolymer (SD-1689), poly[L-Glu 0.153, L-Ala 0.479, L-Lys 0.365] (peptide)” registered an IC50 of less than 1000 µM and an equilibrium dissociation constant (Kd) of 0.003 µM.

A further assay concerns the target Detergent-soluble HLA-DR2 purified from MGAR cells (DRB1*1501) (human).
With “GTL terpolymer (SD-1697), poly[L-Tyr 0.162, L-Glu 0.259, L-Lys 0.579] (peptide)”, the IC50 is 25.4 µM. This lies in the double-digit micromolar range.

Copolymer 1 (peptide): the IC50 is 10.1 µM and the Kd was 0.082 µM.

Consider “TGA terpolymer (SD-1690), poly[L-Tyr 0.136, L-Glu 0.21, L-Ala 0.648] (peptide)”, for which the IC50 came out at 9.5 µM and the Kd was determined as 0.008 µM.

Regarding “GAL terpolymer (SD-1689), poly[L-Glu 0.153, L-Ala 0.479, L-Lys 0.365] (peptide)”, the IC50 is less than 1000 µM and the Kd amounted to 0.017 µM.

In turn, “TAL terpolymer (SD-1691), poly[L-Tyr 0.102, L-Ala 0.542, L-Lys 0.353] (peptide)” displayed an IC50 of 2.7 µM and a Kd of 0.017 µM.

Another assay deals with Detergent-soluble HLA-DR1 purified from LG-2 cells (DRB1*0101) (human).
In turn, “GTL terpolymer (SD-1697), poly[L-Tyr 0.162, L-Glu 0.259, L-Lys 0.579] (peptide)” yielded a half-inhibitory concentration (IC50) of 43 µM and a Kd of 0.004 µM.

Consider Copolymer 1 (peptide), for which the IC50 is 8.8 µM and the dissociation constant (Kd) is 0.074 µM.

The substance “TGA terpolymer (SD-1690), poly[L-Tyr 0.136, L-Glu 0.21, L-Ala 0.648] (peptide)” displayed a concentration for half-maximal inhibition (IC50) of 1.3 µM and a dissociation constant Kd of 0.01 µM.

In turn, “GAL terpolymer (SD-1689), poly[L-Glu 0.153, L-Ala 0.479, L-Lys 0.365] (peptide)” returned an IC50 of less than 1000 µM.

With “TAL terpolymer (SD-1691), poly[L-Tyr 0.102, L-Ala 0.542, L-Lys 0.353] (peptide)”, the IC50 amounted to 3.3 µM. This lies in the single-digit micromolar range.

As a reminder, the IC50 is the midpoint of a concentration-inhibition curve. High values mean weaker potency in that assay, low ones greater potency in that assay. The term Kd denotes the constant that tells how readily two partners part at equilibrium.

The values are drawn from patent publication US20150030560A1.
